# Laboratory results: patent US20230111279A1
# Where a chain is given by its changes, count along the chain named.
# B1: anti-Clec12A antibody B (antibody, V domains shown)
# VH: QVQLVESGGGVVQPGRSLRLSCAASGFTFSSYGMHWVRQAPGKGLEWVAVISYDGSDKYYVDSVKGRFTISRDNSKNTLYLHMNSLRAEDTAVYYCARDKGYYFDYWGQGTLVTVSS
# VL: EIVMTQSPATLSLSPGERATLSCRASQSVGNRYLSWYQQKPGQAPRLLIYGASTRATGIPARFSGSGSGTDFTLTISSLQPEDFAVYYCQQDYNLPLTFGGGTKVEIK
# B2: anti-Clec12A antibody C (antibody, V domains shown)
# VH: B1 VH with Y60S, V61A, T69N, H82Q, K100G, G101S, Y102R
# VL: B1 VL with V3F, G30H, N31S, R32K, R46S, L97I, G101Q, K104R, V105L
# B3: anti-Clec12A antibody A (antibody, V domains shown)
# VH: QVQLQESGPGLVKPSETLSLTCTVSGGSISTYYWSWIRQPPGKGLEWIGYIYYSGSTKYNPSLKSRVTISVDTSKNLFSLKLSSVTAADTAVYYCAREDYYGSGSPFDYWGQGTLVTVSS
# VL: IQMTQSPSSLSASVGDRVTITCRASQGIRYDLGWYQQKPGKAPKLLIYAASSLQSGVPSRFSGSGSGTDFTLTISSLQPEDFATYYCLQDYNFPRTFGQGTKVEIK
# Molecular target: Clec12A on cells (Clec12A over-expressing CHO-S cells; U937 cells endogenously expressing Clec12A) (UniProt Q5QGZ9)
# Sequence (Q5QGZ9 whole entry): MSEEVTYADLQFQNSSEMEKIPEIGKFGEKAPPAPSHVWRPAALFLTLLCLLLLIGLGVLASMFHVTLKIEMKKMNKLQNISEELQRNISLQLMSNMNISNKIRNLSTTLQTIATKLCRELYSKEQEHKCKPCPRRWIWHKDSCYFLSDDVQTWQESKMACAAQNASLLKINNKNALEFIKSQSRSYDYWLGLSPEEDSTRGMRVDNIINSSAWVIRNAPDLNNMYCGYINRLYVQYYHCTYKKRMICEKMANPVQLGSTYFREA
# Experiment: flow cytometry, serial dilution, on U937 cells endogenously expressing Clec12A
row,EC50,Binder
1,3.36 nM,B1
2,3.35 nM,B2
3,0.621 nM,B3
